For 1 molecule, survival rate results are on record in US12329806B2, “Compound for modulating rlr, tlr, oas and/or oncostatin m pathways, use thereof for preparing a medicine, composition, method for modulating said pathways and method of treatment” (Instituto Butantan, priority 2018, dated 2025).

Holding throughout (assay): Cell viability tests (survival rate), previous experiment
Holding throughout (conditions): rounded values

For one test, the system named is Mia-PaCa-2 cells. Type of test: cell-based, human. The source says:
(§1) ER stress also promotes mitochondrial dysfunction, Cytochrome c release, PARP cleavage, Ca+^2 mobilization and caspase activation in SK-MEL-28 and Mia-PaCa-2 cells, positively regulating CASP3. The survival rate of the previous experiment, calculated using cell viability tests, is herein summarized: Mia-PaCa-2 67%, SK-MEL-28 44%, SK-MEL-5 42%, non-tumoral human fibroblasts 100% (rounded values). These numbers indicate that part of the cells possibly survives through a positive unfolded protein response (UPR) and part dies. […] Furthermore, autophagy could also be evoked to recover a global tissue homeostasis, and, in this case, there is the signature of immunogenic cell death (ICD). It is believed that the ICD could explain this.

The subject of another test is SK-MEL-28 cells. The class given is cell-based, human.
Excerpt: as §1

The next test has as its system SK-MEL-5. The class given is cell-based.
Excerpt: as §1

Test [1] relates to non-tumoral human fibroblasts. Type of test: cell-based.
Excerpt: as §1

B1: Amblyomin-X: recombinant Kunitz type protein identified in a cDNA library of Amblyomma sculptum tick salivary glands (protein)
chain: MRQLAVLALVIFTGMCVESQSANSKAVCNLPKLAGDETCSNKTEIRWYYNGTACEAFIFKGCGGNDNNFDRVDDCQRLCEEQTHFHFESPKLICFKVQDYWILNDIMKKNLTGISLKSEEEDADSGEID
modifications: Amblyomin-X
notes: recombinant Kunitz type protein identified in a cDNA library of Amblyomma sculptum tick salivary glands
Turning to B1, the survival rate with Mia-PaCa-2 cells is on record as 67%; in the test on SK-MEL-28 cells, 44%; in the test with SK-MEL-5 it was 42%; in test [1], 100%.
